The chains are these.
B3: Streptococcus pneumoniae pneumolysin, recombinant (natural protein)
chain: ANKAVNDFILAMNYDKKKLLTHQGESIENRFIKEGNQLPDEFVVIERKKRSLSTNTSDISVTATNDSRLYPGALLVVDETLLENNPTLLAVDRAPMTYSIDLPGLASSDSFLQVEDPSNSSVRGAVNDLLAKWHQDYGQVNNVPARMQYEKITAHSMEQLKVKFGSDFEKTGNSLDIDFNSVHSGEKQIQIVNFKQIYYTVSVDAVKNPGDVFQDTVTVEDLKQRGISAERPLVYISSVAYGRQVYLKLETTSKSDEVEAAFEALIKGVKVAPQTEWKQILDNTEVKAVILGGDPSSGARVVTGKVDMVEDLIQEGSRFTADHPGLPISYTTSFLRDNVVATFQNSTDYVETKVTAYRNGDLLLDHSGAYVAQYYITWDELSYDHQGKEVLTPKAWDRNGQDLTAHFTTSIPLKGNVRNLSVKIRECTGLAWEWWRTVYEKTDLPLVRKRTISIWGTTLYPQVEDKVEND
notes: pneumolysin of S. pneumoniae strain R6, residues 2-471 of WP_001284359.1; pQE30 vector; In the folding assays it was denatured in 8 M urea and then diluted; also called Ply; Ply toxin

Data set [1] deals with the molecule itself. Kind of data set: crystal structure; X-ray structures of SpnPrsA (2.55 A) and SmuPrsA (3.15 A); dimers in the crystal.
Data set [2] addresses B3. Kind of data set: MST; chaperone labelled with red NHS dye kept at 20 nM, unlabelled protein in serial dilution; pH 6.5, 0.05% Tween 20, 25 C; 1:1 model in PALMIST, 95% CI. The settings on record: both partners purified.
A further data set has as its target T1, bovine serum albumin (bovine, UniProt P02769 25-607).
T1 construct: also called BSA
The data set is described as above. The following applies: both partners purified.

Data set [3] deals with B3. In words: ITC; chaperone in the syringe, Ply in the sample cell; 20 mM MES, 100 mM NaCl, 1 mM beta-mercaptoethanol, 10% glycerol, pH 6.5, 25 C; independent binding model. The following applies: both partners purified. (In general: ITC needs no label: the signal is the heat of the interaction.)
Data set [4] deals with T2, Streptococcus pneumoniae SlrA (Streptococcus pneumoniae strain R6, UniProt Q8DQG5 19-267).
T2 construct: also called SpnSlrA; hexa-his-tagged SpnSlrA; source: E. coli BL21 (DE3), expressed and purified similarly to Ply (Ni-NTA, dialysis); not shown: His6, N-terminal, kept
In words: MST; chaperone labelled with red NHS dye kept at 20 nM, unlabelled protein in serial dilution; pH 6.5, 0.05% Tween 20, 25 C; 1:1 model in PALMIST, 95% CI. The settings on record: both partners purified.

The target of data set [5] is T2, Streptococcus pneumoniae SlrA. Kind of data set: ITC; chaperone in the syringe, Ply in the sample cell; 20 mM MES, 100 mM NaCl, 1 mM beta-mercaptoethanol, 10% glycerol, pH 6.5, 25 C; independent binding model. The following applies: both partners purified.

For orientation: Kd means the free concentration of one partner at which half of the binding sites on the other are occupied at equilibrium, for simple one-to-one binding. One may read the stoichiometry N as a count of units in the complex or per binding partner.

T1 sequence (P02769 25-607): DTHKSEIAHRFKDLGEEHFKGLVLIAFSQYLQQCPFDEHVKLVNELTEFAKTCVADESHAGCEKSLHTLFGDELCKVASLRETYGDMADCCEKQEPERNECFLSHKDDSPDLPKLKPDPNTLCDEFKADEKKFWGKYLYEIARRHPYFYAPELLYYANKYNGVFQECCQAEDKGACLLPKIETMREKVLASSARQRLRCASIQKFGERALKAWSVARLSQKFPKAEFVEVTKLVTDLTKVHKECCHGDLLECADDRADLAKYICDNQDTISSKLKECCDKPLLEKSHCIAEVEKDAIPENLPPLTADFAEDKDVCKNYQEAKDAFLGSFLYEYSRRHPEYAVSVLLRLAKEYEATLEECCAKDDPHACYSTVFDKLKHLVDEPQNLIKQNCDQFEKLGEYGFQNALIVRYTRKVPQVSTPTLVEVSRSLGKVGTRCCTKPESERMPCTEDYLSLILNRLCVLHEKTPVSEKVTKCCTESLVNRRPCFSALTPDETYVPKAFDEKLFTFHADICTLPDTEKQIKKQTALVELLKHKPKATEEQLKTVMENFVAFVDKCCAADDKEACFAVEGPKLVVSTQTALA

B1: Streptococcus mutans PrsA (enzyme)
chain: ACSKTNQNSKIATMKGDTITVADFYNEVKNSTASKQAVLSLLVSKVFEKQYGDKVSDKEVTKAYNEAAKYYGDSFSSALASRGYTKEDYKKQIRSEKLIEYAVKEEAKKEITDASYKSAYKDYKPEVTAQVIQLDSEDKAKSVLEEAKADGADFAKIAKDNTKGDKTEYSFDSGSTNLPSQVLSAALNLDKDGVSDVIKASDSTTYKPVYYIVKITKKTDKNADWKAYKKRLKEIIVSQKLNDSNFRNAVIGKAFKKANVKIKDKAFSEILSQY
notes: also called SmuPrsA
B1: the binding result in data set [1] was “binds”.

B2: Streptococcus pneumoniae PrsA (enzyme)
chain: GADLISMKGDVITEHQFYEQVKNNPSAQQVLLNMTIQKVFEKQYGSELDDKEVDDTIAEEKKQYGENYQRVLSQAGMTLETRKAQIRTSKLVELAVKKVAEAELTDEAYKKAFDEYTPDVTAQIIRLNNEDKAKEVLEKAKAEGADFAQLAKDNSTDEKTKENGGEITFDSASTEVPEQVKKAAFALDVDGVSDVITATGTQAYSSQYYIVKLTKKTEKSSNIDDYKEKLKTVILTQKQNDSTFVQSIIGKELQAANIKVKDQAFQNIFTQYIGGGDSSSSSSTSNE
notes: also called SpnPrsA; hexa-his-tagged SpnPrsA; not shown: His6, N-terminal, kept
Take B2: in data set [1], the binding result is “binds”. The dissociation constant Kd in data set [2] is 70 nM. The molecule further returned a Kd with bovine serum albumin of 62000 ± 58000 nM. Further, in data set [3], the Ka came to 8.38e+06 M⁻¹, the Kd stood at 119 ± 25.9 nM, the dH is -100 ± 3.74 kcal/mol and the “stoichiometry N” value came to 1.85.
B3 came in with a Kd in data set [4] of 60 nM. In data set [5], the Ka came out at 1.23e+07 M⁻¹ and the affinity, expressed as Kd, was 81.2 ± 18 nM.

Values taken from publication PMC11853100, “Structural analysis of extracellular ATP-independent chaperones of streptococcal species and protein substrate interactions” (mSphere, 2025).
